# Assay results taken from IntAct's records for PubMed 29892012.
# B1: Abl interactor 2 (Homo sapiens), Q9NYB9 (parent)
# chain: MAELQMLLEEEIPGGRRALFDSYTNLERVADYCENNYIQSADKQRALEETKAYTTQSLASVAYLINTLANNVLQMLDIQASQLRRMESSINHISQTVDIHKEKVARREIGILTTNKNTSRTHKIIAPANLERPVRYIRKPIDYTILDDIGHGVKWLLRFKVSTQNMKMGGLPRTTPPTQKPPSPPMSGKGTLGRHSPYRTLEPVRPPVVPNDYVPSPTRNMAPSQQSPVRTASVNQRNRTYSSSGSSGGSHPSSRSSSRENSGSGSVGVPIAVPTPSPPSVFPAPAGSAGTPPLPATSASAPAPLVPATVPSSTAPNAAAGGAPNLADGFTSPTPPVVSSTPPTGHPVQFYSMNRPASRHTPPTIGGSLPYRRPPSITSQTSLQNQMNGGPFYSQNPVSDTPPPPPPVEEPVFDESPPPPPPPEDYEEEEAAVVEYSDPYAEEDPPWAPRSYLEKVVAIYDYTKDKEDELSFQEGAIIYVIKKNDDGWYEGVMNGVTGLFPGNYVESIMHYSE
# partner: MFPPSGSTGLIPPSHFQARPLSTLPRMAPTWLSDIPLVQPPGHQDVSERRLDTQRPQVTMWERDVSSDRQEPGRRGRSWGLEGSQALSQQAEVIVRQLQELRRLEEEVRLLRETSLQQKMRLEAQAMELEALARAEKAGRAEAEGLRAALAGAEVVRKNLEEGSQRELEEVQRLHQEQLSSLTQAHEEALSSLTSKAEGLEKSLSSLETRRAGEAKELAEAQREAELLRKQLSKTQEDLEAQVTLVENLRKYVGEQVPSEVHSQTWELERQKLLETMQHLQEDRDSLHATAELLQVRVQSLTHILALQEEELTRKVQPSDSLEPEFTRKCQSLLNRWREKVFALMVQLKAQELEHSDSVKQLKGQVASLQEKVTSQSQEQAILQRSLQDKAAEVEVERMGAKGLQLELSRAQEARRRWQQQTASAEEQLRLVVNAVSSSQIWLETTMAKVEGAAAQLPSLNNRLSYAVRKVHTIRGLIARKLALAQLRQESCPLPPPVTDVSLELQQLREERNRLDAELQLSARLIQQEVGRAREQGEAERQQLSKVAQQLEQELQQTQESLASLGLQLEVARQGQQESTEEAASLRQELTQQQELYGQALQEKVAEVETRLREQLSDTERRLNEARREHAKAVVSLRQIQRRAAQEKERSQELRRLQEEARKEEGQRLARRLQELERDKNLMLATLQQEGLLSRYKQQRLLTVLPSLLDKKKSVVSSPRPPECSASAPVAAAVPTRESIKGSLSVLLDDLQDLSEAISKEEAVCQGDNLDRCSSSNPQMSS
# B2: AP-1 complex subunit sigma-2 (Homo sapiens), P56377 (parent)
# chain: MQFMLLFSRQGKLRLQKWYVPLSDKEKKKITRELVQTVLARKPKMCSFLEWRDLKIVYKRYASLYFCCAIEDQDNELITLEIIHRYVELLDKYFGSVCELDIIFNFEKAYFILDEFLLGGEVQETSKKNVLKAIEQADLLQEEAETPRSVLEEIGLT
# B3: Consortin (Homo sapiens), Q6PJW8 (parent)
# chain: MDDSDTPTYYLQIEPQDGCHPGDSVERSVTCLPSASDENENQLDGDGHEHLTSSDSAMGKPQVSEQDSLNNNESCTLSCEVAAGENLQNTLCEASRDEQAFLGKDKKIPGKRSPRSKKGTAKKIPPGLFSGDIAPLMQEKVLSAVTYAVDDEEAAEVNANEQPEAPKLVLQSLFSLIRGEVEQLDSRALPLCLHQIAESYFQEEDYEKAMKFIQLERLYHEQLLANLSAIQEQWETKWKTVQPHTVTALRNSEKGFNGEDFERLTKICATHQDPLLSKHKIAAVEKSQERKCSTQLLVSEDPKEGGATTKESESKTCLGTESSKESQHTVEPLGSSPCCHQMDVQTDSPSLSVTAGKDHMEELLCSAEATLALHTQSSETAGSPSGPDSSEDACEDDSRLQLAQTEACQDVARIEGIAEDPKVFLSSKSKTEPLISPGCDRIPPALISEGKYSQAQRKELRLPLRDASEALPTDQLENNELNELQQPDLTDSDGKSPQAQADSDGSENVLCGNNQISDLGILLPEVCMAPEEKGDKDDQLNKETEDYLNSLLEGCLKDTEDSLSYEDNQDDDSDLLQDLSPEEASYSLQENLPSDESCLSLDDLAKRIEIAEVVPTEGLVSILKKRNDTVGDHPAQMQHKPSKRRVRFQEIDDSLDQDEVGGGSCILLVLLCIATVFLSVGGTALYCTFGDMESPVCTDFADNMDFYYTKLLQGVAELKHWIYLS
# B4: U3 small nucleolar RNA-associated protein 25 homolog (Homo sapiens), Q68CQ4 (parent)
# chain: MGKRGSRSQSQLLNTLTKKQKKHLRDFGEEHPFYDRVSRKEAKPQICQLSESSDSSDSESDSESEPQQVSGYHRLLATLKNVSEEEEEDEEEEEEEDSIVDDAEMNDEDGGSDVSVEEEMAAESTESPENVALSADPEGKEDGEEPPGTSQTSPEEFTDAKHESLFSLETNFLEEESGDNSSLKASQDPFLQHVNKELKEKAIQAVATNPKTTHELKWPILGQLFFSSKFQKLETFKPPKDIDLKSLHLQKPLESTWTKTNSQFLSGPQKSSSPFTPLQKELFLIMNSYRDLFYPERTALKNGEEIRHVYCLHVINHILKANAQVLGNNSRRRSQKFGVGDDDDFRDQGLTRPKVLIVVPFREAALRVVQLFISLLEGDSKKKIIVSNKKRFQGEYGSDPEERPPNLKRPEDYEAVFVGNIDDHFRIGVAILQRSIRLYAPFYSSDILIASPLGLRTIIGGEGEKKRDFDFLSSIELLIIDQADIYLMQNWEHVLHLMNHMNLLPLDSHGVDFSRVRMWSLNNWSKYYRQTLLFGALQDAQINSVFNKYCVNMQGQVAVRNVPMTGSISHVLVQLPHVFQRMEAENLASVIDARFNFFVNKILPQYRDAVMSHTLIYIPSYFDFVRLRNYFKKEELNFTHICEYTQKSGVSRARHFFLQGEKQFLLFTERFHFYKRYTIKGIRNLIFYELPTYPHFYSEICNMLRATNRGEEATWTCTVLYSKYDAQRLAAVVGVERAAQMLQSNKNVHLFITGEK
# partner: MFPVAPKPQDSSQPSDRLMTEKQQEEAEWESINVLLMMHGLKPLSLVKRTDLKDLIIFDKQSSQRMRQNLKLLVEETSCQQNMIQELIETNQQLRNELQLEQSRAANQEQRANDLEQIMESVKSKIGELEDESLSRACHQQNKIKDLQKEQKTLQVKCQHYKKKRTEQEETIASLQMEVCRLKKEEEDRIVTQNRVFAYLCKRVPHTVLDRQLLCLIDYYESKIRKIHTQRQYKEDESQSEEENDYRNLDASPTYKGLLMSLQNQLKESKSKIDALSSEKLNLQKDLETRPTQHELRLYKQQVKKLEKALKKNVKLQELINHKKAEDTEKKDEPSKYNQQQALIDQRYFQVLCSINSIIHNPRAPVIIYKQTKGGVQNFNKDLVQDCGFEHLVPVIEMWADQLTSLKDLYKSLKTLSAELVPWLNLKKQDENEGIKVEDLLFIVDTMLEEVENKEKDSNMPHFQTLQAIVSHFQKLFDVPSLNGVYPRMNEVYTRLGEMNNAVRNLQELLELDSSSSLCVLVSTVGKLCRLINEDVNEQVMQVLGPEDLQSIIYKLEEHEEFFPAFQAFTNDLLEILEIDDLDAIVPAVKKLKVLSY
# B5: MOB kinase activator 3C (Homo sapiens), Q70IA8 (parent)
# chain: MALCLKQVFAKDKTFRPRKRFEPGTQRFELYKKAQASLKSGLDLRSVVRLPPGENIDDWIAVHVVDFFNRINLIYGTMAERCSETSCPVMAGGPRYEYRWQDERQYRRPAKLSAPRYMALLMDWIEGLINDEEVFPTRVGVPFPKNFQQVCTKILTRLFRVFVHVYIHHFDSILSMGAEAHVNTCYKHFYYFIREFSLVDQRELEPLREMTERICH
# partner: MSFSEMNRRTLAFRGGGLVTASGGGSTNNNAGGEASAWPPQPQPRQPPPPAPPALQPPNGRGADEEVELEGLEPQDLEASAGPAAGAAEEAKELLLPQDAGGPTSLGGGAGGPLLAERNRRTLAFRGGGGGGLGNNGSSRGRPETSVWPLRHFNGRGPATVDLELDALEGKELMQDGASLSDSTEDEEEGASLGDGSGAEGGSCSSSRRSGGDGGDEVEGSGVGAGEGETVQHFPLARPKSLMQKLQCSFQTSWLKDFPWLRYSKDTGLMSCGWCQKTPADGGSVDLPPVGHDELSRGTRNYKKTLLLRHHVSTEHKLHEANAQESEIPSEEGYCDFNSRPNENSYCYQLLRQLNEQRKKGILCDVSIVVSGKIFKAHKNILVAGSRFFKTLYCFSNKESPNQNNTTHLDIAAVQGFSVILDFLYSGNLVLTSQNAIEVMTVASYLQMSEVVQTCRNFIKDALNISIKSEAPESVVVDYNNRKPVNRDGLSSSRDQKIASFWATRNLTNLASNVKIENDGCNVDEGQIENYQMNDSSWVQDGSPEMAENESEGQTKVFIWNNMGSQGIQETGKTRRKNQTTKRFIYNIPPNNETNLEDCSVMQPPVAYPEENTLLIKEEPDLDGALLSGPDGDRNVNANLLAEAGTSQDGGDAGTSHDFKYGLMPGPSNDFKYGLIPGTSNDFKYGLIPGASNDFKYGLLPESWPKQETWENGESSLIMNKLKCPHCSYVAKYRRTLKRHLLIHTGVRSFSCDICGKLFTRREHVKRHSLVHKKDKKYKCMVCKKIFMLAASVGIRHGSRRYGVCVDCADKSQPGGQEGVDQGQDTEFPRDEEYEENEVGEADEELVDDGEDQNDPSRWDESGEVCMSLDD
# B6: Melanoma-associated antigen 8 (Homo sapiens), P43361 (parent)
# chain: MLLGQKSQRYKAEEGLQAQGEAPGLMDVQIPTAEEQKAASSSSTLIMGTLEEVTDSGSPSPPQSPEGASSSLTVTDSTLWSQSDEGSSSNEEEGPSTSPDPAHLESLFREALDEKVAELVRFLLRKYQIKEPVTKAEMLESVIKNYKNHFPDIFSKASECMQVIFGIDVKEVDPAGHSYILVTCLGLSYDGLLGDDQSTPKTGLLIIVLGMILMEGSRAPEEAIWEALSVMGLYDGREHSVYWKLRKLLTQEWVQENYLEYRQAPGSDPVRYEFLWGPRALAETSYVKVLEHVVRVNARVRISYPSLHEEALGEEKGV
# B7: Melanoma-associated antigen 8 (Homo sapiens), P43361 (parent)
# chain: B6 chain
# partner: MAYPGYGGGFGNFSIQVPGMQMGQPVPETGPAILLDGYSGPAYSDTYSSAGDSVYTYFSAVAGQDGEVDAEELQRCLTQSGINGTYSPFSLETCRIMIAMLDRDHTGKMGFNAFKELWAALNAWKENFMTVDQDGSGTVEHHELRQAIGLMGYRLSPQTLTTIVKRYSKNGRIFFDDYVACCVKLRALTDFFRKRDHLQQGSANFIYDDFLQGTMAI
# B8: Late cornified envelope protein 1B (Homo sapiens), Q5T7P3 (parent)
# chain: MSCQQNQQQCQPPPKCIPKCPPKCLTPRCPPKCPPKCPPVSSCCSVSSGGCCGSSSGGSCGSSSGGCCSSGGGGCCLSHHRRRRSHCHRPQSSGCCSQPSGGSSCCGGGSGQHSGGCC
# Variants of: B1
# Details: with cchcr_human CCHCR1, Q8TD31
row,Variant,effect of a mutation on the interaction
1,E202K,with no effect

# Variants of: B2
# Details: with ap1g1_human AP1G1, O43747
# Sequence of ap1g1_human AP1G1, O43747 (O43747 whole entry): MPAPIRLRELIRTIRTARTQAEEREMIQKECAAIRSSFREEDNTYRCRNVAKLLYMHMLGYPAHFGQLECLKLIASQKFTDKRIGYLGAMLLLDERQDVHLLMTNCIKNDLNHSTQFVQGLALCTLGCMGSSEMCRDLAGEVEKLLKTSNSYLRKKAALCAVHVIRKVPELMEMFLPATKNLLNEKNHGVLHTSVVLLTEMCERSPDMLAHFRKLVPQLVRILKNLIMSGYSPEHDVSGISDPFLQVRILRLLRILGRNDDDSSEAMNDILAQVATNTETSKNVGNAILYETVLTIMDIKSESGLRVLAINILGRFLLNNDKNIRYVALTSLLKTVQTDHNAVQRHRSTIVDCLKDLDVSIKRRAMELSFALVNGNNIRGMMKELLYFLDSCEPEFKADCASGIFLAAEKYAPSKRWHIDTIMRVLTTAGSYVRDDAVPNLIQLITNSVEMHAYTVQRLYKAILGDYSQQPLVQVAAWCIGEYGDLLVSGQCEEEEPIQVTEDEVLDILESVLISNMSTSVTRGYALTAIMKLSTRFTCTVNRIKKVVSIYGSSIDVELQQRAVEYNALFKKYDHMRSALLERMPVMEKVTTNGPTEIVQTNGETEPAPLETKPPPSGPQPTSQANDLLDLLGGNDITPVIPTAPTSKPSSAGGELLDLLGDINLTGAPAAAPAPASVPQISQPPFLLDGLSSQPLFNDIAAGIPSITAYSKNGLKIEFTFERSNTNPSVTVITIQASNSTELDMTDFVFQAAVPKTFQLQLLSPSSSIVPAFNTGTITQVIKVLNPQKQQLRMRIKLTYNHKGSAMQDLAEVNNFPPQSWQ
row,Variant,effect of a mutation on the interaction
1,R9C,with no effect

# Variants of: B3
# Details: with rop1a_human ROPN1, Q9HAT0
# Sequence of rop1a_human ROPN1, Q9HAT0 (Q9HAT0 whole entry): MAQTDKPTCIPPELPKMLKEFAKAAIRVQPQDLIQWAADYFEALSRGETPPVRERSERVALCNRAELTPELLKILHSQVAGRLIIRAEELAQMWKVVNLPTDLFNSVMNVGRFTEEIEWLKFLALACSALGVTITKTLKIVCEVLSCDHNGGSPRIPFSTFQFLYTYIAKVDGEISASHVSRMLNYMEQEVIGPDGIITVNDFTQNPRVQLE
row,Variant,effect of a mutation on the interaction
1,V25M,disrupting interaction strength

# Variants of: B4
# Details: with cep70_human CEP70, Q8NHQ1
row,Variant,effect of a mutation on the interaction
1,D399E,with no effect

# Variants of: B5
# Details: with zbt10_human ZBTB10, Q96DT7
row,Variant,effect of a mutation on the interaction
1,I173F,disrupting interaction strength

# Variants of: B6
# Details: with bex5_human BEX5, Q5H9J7
# Sequence of bex5_human BEX5, Q5H9J7 (Q5H9J7 whole entry): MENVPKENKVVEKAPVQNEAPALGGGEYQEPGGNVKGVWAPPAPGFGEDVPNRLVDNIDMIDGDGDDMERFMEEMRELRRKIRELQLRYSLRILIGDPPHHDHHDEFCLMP
row,Variant,effect of a mutation on the interaction
1,R218C,with no effect

# Variants of: B7
# Details: with gran_human GCA
row,Variant,effect of a mutation on the interaction
1,R218C,with no effect

# Variants of: B8
# Details: with kr108_human KRTAP10-8, P60410
# Sequence of kr108_human KRTAP10-8, P60410 (P60410 whole entry): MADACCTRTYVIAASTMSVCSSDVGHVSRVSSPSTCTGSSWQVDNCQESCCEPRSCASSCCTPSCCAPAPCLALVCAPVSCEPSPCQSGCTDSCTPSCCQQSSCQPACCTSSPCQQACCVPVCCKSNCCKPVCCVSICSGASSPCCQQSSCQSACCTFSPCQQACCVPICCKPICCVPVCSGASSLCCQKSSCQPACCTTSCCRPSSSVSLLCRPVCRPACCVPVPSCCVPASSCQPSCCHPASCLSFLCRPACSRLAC
row,Variant,effect of a mutation on the interaction
1,C16Y,disrupting interaction strength

# Variants of: B8
# Details: with kr103_human KRTAP10-3, P60369
# Sequence of kr103_human KRTAP10-3, P60369 (P60369 whole entry): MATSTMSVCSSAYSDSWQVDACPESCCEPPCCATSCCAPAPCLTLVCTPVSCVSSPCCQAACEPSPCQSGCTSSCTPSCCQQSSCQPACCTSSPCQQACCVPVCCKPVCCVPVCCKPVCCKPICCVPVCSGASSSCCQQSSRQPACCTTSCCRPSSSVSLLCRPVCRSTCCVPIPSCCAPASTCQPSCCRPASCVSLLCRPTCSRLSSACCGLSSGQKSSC
row,Variant,effect of a mutation on the interaction
1,C16Y,disrupting interaction strength

# Variants of: B8
# Details: with kr101_human KRTAP10-1, P60331
# Sequence of kr101_human KRTAP10-1, P60331 (P60331 whole entry): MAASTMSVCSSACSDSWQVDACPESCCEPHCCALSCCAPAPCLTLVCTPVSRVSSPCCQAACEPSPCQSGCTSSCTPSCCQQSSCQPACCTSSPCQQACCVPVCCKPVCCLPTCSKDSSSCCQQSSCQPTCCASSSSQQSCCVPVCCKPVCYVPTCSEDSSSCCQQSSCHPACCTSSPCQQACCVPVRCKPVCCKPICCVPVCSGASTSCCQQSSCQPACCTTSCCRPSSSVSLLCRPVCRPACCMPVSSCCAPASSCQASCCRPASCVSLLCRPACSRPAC
row,Variant,effect of a mutation on the interaction
1,C16Y,with no effect

# Variants of: B8
# Details: with hxa1_human HOXA1, P49639
# Sequence of hxa1_human HOXA1, P49639 (P49639 whole entry): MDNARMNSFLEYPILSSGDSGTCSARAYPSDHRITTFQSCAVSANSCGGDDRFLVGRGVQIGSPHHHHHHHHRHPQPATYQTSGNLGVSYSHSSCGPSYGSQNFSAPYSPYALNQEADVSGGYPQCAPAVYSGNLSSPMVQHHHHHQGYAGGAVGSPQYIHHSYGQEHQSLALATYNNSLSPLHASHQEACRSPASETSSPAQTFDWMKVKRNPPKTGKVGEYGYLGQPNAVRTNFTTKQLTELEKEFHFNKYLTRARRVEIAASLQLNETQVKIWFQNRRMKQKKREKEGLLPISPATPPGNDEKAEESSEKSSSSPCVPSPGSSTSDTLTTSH
row,Variant,effect of a mutation on the interaction
1,C16Y,with no effect

# Variants of: B8
# Details: with kr105_human KRTAP10-5, P60370
# Sequence of kr105_human KRTAP10-5, P60370 (P60370 whole entry): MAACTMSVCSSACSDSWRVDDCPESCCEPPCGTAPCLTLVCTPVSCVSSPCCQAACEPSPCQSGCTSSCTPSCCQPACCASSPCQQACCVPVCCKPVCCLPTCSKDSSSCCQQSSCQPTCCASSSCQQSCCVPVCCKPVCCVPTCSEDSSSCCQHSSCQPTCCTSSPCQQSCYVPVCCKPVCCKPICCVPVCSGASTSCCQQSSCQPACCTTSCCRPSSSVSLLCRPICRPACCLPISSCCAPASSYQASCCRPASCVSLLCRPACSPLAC
row,Variant,effect of a mutation on the interaction
1,C16Y,disrupting interaction strength

# Variants of: B8
# Details: with mdfi_human MDFI
row,Variant,effect of a mutation on the interaction
1,C16Y,disrupting interaction strength

# Variants of: B8
# Details: with otx1_human OTX1, P32242
# Sequence of otx1_human OTX1, P32242 (P32242 whole entry): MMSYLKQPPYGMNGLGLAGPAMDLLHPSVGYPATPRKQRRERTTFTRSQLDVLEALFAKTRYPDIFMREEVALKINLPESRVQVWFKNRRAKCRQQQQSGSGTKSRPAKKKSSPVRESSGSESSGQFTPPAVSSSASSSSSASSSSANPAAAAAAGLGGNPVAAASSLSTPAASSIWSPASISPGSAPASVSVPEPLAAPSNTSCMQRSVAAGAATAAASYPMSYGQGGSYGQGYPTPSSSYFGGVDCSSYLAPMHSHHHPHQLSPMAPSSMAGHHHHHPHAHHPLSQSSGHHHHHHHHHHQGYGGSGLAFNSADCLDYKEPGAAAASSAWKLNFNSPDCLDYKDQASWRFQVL
row,Variant,effect of a mutation on the interaction
1,C16Y,with no effect

# Variants of: B8
# Details: with kra32_human KRTAP3-2, Q9BYR7
# Sequence of kra32_human KRTAP3-2, Q9BYR7 (Q9BYR7 whole entry): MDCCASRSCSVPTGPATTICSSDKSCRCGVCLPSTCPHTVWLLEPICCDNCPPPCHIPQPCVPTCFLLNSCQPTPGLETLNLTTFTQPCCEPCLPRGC
row,Variant,effect of a mutation on the interaction
1,C16Y,with no effect

# Variants of: B8
# Details: with nt2na_human NOTCH2NLA
row,Variant,effect of a mutation on the interaction
1,C16Y,with no effect
